# Laboratory results from paper PMC8618851, “The RNA Directed DNA Methylation (RdDM) Pathway Regulates Anthocyanin Biosynthesis in Crabapple (Malus cv. spp.) Leaves by Methylating the McCOP1 Promoter”.
# Target: McDRM2 (Malus cv. spp. (crabapple), UniProt UPI0010AA5BBA 1-600)
# Test: EMSA; 10x binding buffer, MgCl2, NP-40; 2 uL 10x binding buffer, 1 uL 50% glycerol, 1 uL 100 mM MgCl2, 1 uL 1% NP-40, 2 ug protein, 2 uL 0.1 uM biotin oligo; 25 C, 20 min; 12% native PAGE; pH and salt not given
# Settings: protein: recombinant; tags: MBP (pMAL-C2X); label: 3' biotin
# Sequence of McDRM2 (chain, as listed by the source): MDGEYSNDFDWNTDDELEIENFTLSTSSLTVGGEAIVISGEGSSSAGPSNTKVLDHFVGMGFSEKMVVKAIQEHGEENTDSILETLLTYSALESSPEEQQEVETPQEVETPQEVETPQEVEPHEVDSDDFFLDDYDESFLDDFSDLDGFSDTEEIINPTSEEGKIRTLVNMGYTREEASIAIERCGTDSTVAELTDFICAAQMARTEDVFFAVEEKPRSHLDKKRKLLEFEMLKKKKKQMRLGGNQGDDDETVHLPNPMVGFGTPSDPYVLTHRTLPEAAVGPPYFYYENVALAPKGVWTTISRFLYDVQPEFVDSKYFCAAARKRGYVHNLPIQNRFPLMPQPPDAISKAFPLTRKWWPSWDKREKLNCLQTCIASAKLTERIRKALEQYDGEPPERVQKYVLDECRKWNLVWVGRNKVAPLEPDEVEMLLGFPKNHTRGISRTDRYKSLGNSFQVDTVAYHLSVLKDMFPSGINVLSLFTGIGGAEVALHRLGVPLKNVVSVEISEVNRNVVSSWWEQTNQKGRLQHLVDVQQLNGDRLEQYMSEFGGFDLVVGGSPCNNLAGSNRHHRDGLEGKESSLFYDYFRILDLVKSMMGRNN
binder,measurement,value
McCOP1 promoter SINE-site probe (dsDNA) DNA 1: TTCAACGTATTAACTTTATCGGTTCGGTGGACAATTCC DNA 2: GGAATTGTCCACCGAACCGATAAAGTTAATACGTTGAA,binding result,no binding
